The source of these data is US6841385B2, “Transcription factor E2F DNA-binding domain inhibitor peptides and their use” (Topotarget UK Limited, priority 1999, dated 2005).

Test [1] relates to C33A (cervical carcinoma). Kind of test: BrDU proliferation assay, C33A cells. It is filed as cell-based. Particulars: 24 hrs, dose-dependent. The protocol: (§1) Four tumor cell lines U2OS (osteosarcoma), C33A (cervical carcinoma), HeLa (cervical carcinoma) and E2F4/ras (derived from primary rat embryo fibroblasts) were treated with the branched peptide MAP-4-SEQ ID NO:2-TAT or mutant control peptide MAP-4-SEQ ID NO:39-TAT for 24 hrs. Cell proliferation was measured using the BrDU proliferation assay from Boehringer Mannheim (Cat No. 1 647 229).

In test [2] the test system is HeLa cells. Briefly: BrdU incorporation cell proliferation assay, HeLa cells. It is filed as cell-based. Particulars: 24 hrs, dose-dependent. The protocol: (§2) HeLa cells were grown in Dulbecco's Modified Eagle's Medium (DMEM) supplemented with fetal calf serum (FCS) and HL60 cells in RPMI 1640 supplemented with 10% FCS. Cells were treated with peptides in culture medium and incubated overnight before harvesting.
The peptides were tested in further experiments for their effect on cell cycle progression and cell viability. For this purpose, the peptides were conjugated at their C-terminus to a cell penetrating HIV-Tat derived peptide (aa 48-60) (Fawell et al. (1994) Proc. Natl. Acad. Sci. USA 91, 664-668).
(§3) HeLa, 3T3, W138 cells were treated with varying concentration of MAP-4-SEQ ID NO:2-TAT and a control peptide MAP-4-SEQ ID NO:39-TAT wherein SEQ ID NO:39 is SEQ ID NO:2 but containing 2 alanine substitutions at positions 1 and 4, i.e. AVRAHF (SEQ ID NO:39) DNA replication was analysed by BrdU incorporation after 24 hours.
as §1
A general note: Dividing cells build labelled thymidine or BrdU into new DNA.

Test [3] relates to U2OS (osteosarcoma). Kind of test: BrDU proliferation assay, U2OS cells. The conditions noted are these: 24 hrs, dose-dependent. It is filed as cell-based. How it is done: as §1
Test [4] concerns HL60 cells. Briefly: Apoptosis, staining of HL60 cells with Heochst 33342 propidium iodide. Format: cell-based. How it is done: (§4) Effects became visible after 5-24 hours defending on the concentration of the peptide.
Test [5] deals with E2F4/ras (derived from primary rat embryo fibroblasts). Briefly: BrDU proliferation assay, E2F4/ras cells. Format: cell-based. The conditions noted are these: 24 hrs, dose-dependent. How it is done:
as §1

In test [6] the test system is HL60 cells. Briefly: Growth of HL60 cells treated with peptide. It is filed as cell-based. The conditions noted are these: HL60 cells, concentrations between 1-5 μM. The protocol: as §2, §3, §4
Test [7] deals with CycA promoter. Kind of test: Transcription from the CycA promoter, HeLa cells transiently transfected with CycA-Luciferase construct. Format: cell-based. The text has this:
This finding is in agreement with the anti-repressor function of E2F in the CycA promoter, (Liu et al, Oncogene (1998), 16, 2957-2963).

Test [8] deals with HL60 cells. Briefly: Nuclease-laddering assay (DNA laddering) in HL60 cells. Format: cell-based. The protocol:
Treated cells were collected, washed with PBS, resuspended in lysis buffer (50 mM Tris pH 7.9, 100 mM EDTA, pH 8, 100 mM NaCl, 1% SDS) and 500 μg/ml proteinase K and incubated at 55° C. for 18 h. Cells were then incubated with […] for 1 hour at 37° C., genomic DNA was purified and examined by agarose gel electrophoresis.
as §4

Test [9] deals with T1, recombinant E2F1 and DP1 (Homo sapiens, UniProt Q01094).
T1 construct: Purified E2F1 N1-His (64-301) and DP1 N2-GST (84-249) were incubated at 10 μg/ml; His; made in house; host or cells: E. coli BL21 DE3 (pET28b) for E2F1
T1 sequence (Q01094 64-301): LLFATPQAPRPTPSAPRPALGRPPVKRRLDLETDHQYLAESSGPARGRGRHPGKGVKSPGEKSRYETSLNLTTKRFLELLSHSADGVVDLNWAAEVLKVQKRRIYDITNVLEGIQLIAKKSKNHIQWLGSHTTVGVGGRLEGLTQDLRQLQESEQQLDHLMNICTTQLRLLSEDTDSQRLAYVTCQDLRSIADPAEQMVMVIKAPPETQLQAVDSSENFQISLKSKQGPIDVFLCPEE
T1 sequence (Q14186 84-249 partner): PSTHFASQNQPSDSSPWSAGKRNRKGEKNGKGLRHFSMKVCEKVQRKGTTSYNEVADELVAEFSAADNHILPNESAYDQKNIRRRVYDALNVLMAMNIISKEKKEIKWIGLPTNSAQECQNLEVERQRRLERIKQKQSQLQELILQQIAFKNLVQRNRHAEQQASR
Briefly: Band shift assay with recombinant E2F1 and DP1, B-myb E2F-binding site as probe. The conditions noted are these: for IC50: B-myb E2F-binding site as probe, read-out: IC50, inhibition of DNA binding; for inhibition: SEQ ID NO: 2 Alanine-scanning. How it is done:
N-terminal fragments of human E2F1 (aa 64-301), E2F2 (aa 69-306), E2F3 (aa 128-356), E2F4 (aa 1-198), E2F5 (aa 42-233) were cloned into bacterial expression vector pET28b (Novagen) and were purified from BL21 DE3 cells by immobilised metal-affinity chromatography. A N-terminal fragment of DP1 (aa 85-249) was expressed as GST fusion protein and purified by glutathione-affinity chromatography.
Purified E2F1 N1-His (64-301) and DP1 N2-GST (84-249) were incubated at 10 μg/ml in a buffer containing 10 mM HEPES, […], 1 mM EDTA, […], 33 mg/ml BSA and 0.1 μg of sonicated salmon sperm for 10 minutes on ice. ^32P-labelled probe was added and the reaction mixture was incubated at room temperature for 20 minutes. Probes were labelled by filling-in 5′ overhanging ends of 4-7 bases. Samples were run on 4% non denaturing polyacrylamide gel in 0.5% TBE at 4° C. Gels were exposed to X-ray films. Nuclear extract (3 μg) was incubated in 17 μl buffer containing 0.3 M NaCl, 0.4 M Tris pH 7.9, 100 mM EDTA, 0.4 M DTT, 13% glycerol, 1 μg of sonicated salmon sperm on ice. The samples were then incubated for 10 minutes at 30° C. and cooled on ice. ^32P-labelled probe was added, the reaction mixtures were incubated for another 10 minutes at 30° C. and then cooled on ice.
• B-myb: (5′-[…]) (SEQ ID NO:16) • NF-Y: 5′-ATTTTTCTGATTTGGTTAA (SEQ ID NO:17) • Spl: 5′-ATGGGGCGGAGA (SEQ ID NO:18) • ATF: 5′-[…] (SEQ ID NO:19) Introduction of Peptides into Mammalian Cells
The inhibitory potential of the peptides on E2F function was analysed in band shift assays with recombinant E2F1 and DP1. […] The IC50 concentrations for the 3 peptides were in the range of 50-100 μM. Inhibition to various extends was also observed using recombinant fragments of E2F2, E2F3, E2F4, E2F5, respectively. Approximately 100-fold lower IC50 values were found with a branched molecule consisting of 4 copies of SEQ ID NO:2 linked by MAP (multiple antigen peptide).

Test [10] addresses T2, recombinant E2F1 N1-His (64-301) with DP1 N2-GST (84-249) (human, UniProt Q01094 64-301; Q14186 84-249).
T2 construct: range 64-301;range 84-249; Both proteins were incubated together at 10 ug/ml in the band shift assay with a 32P-labelled B-myb E2F-site probe; also called recombinant E2F1 and DP1; not shown: His tag from vector pET28b; GST fusion partner
Briefly: deletion analysis; grade of inhibition of E2F DNA binding (band shift).

Test [11] addresses E2F in HeLa cells (nuclear extracts; endogenous E2F in transfected HeLa cells). Briefly: band shift with HeLa nuclear extract; inhibition of E2F DNA binding.
The target of test [12] is E2F in nuclear extracts from F9 embryonal carcinoma cells. Kind of test: band shift with F9 nuclear extract; inhibition of E2F DNA binding.
Test [13] has as its target E2F4 overexpressed in stable transfected 3T3 cells (nuclear extract) (UniProt Q16254 2-413, limits assumed). Briefly: band shift, extract of 3T3 cells overexpressing E2F4; inhibition of DNA binding.
Description: (§5) Probes were labelled by filling-in 5' overhanging ends of 4–7 bases. Samples were run on 4% non denaturing polyacrylamide gel in 0.5% TBE at 4° C. Gels were exposed to X-ray films. […] The samples were then incubated for 10 minutes at 30° C. and cooled on ice. ^32P-labelled probe was added, the reaction mixtures were incubated for another 10 minutes at 30° C. and then cooled on ice.
For test [14], the target named is E2F1 overexpressed in stable transfected 3T3 cells (nuclear extract) (UniProt Q01094 1-437, limits assumed). Briefly: band shift, extract of 3T3 cells overexpressing E2F1; inhibition of DNA binding.
Chain of E2F1 overexpressed in stable transfected 3T3 cells (nuclear extract) (Q01094 whole entry): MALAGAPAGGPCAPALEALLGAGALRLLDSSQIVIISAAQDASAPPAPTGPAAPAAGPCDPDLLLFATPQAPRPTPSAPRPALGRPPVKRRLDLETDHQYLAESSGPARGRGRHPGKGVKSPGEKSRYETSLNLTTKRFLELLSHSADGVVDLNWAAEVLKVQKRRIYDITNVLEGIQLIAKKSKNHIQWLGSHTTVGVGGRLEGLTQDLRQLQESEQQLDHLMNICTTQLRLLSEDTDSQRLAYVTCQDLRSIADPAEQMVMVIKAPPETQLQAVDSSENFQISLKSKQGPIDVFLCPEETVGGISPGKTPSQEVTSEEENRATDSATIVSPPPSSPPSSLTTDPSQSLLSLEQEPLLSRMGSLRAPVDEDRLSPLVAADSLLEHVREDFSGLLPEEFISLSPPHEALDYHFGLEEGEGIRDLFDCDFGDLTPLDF
Description: as §5
Test [15] addresses E2F2 overexpressed in stable transfected 3T3 cells (nuclear extract) (UniProt Q14209 1-437, limits assumed). Briefly: band shift, extract of 3T3 cells overexpressing E2F2; inhibition of DNA binding.
Description: as §5
Test [16] has as its target E2F3 overexpressed in stable transfected 3T3 cells (nuclear extract) (UniProt O00716 1-465, limits assumed). Briefly: band shift, extract of 3T3 cells overexpressing E2F3; inhibition of DNA binding.
Description: as §5
The target in test [17] is E2F5 overexpressed in stable transfected 3T3 cells (nuclear extract) (UniProt Q15329 1-346, limits assumed). Briefly: band shift, extract of 3T3 cells overexpressing E2F5; inhibition of DNA binding.
Chain of E2F5 overexpressed in stable transfected 3T3 cells (nuclear extract) (Q15329 whole entry): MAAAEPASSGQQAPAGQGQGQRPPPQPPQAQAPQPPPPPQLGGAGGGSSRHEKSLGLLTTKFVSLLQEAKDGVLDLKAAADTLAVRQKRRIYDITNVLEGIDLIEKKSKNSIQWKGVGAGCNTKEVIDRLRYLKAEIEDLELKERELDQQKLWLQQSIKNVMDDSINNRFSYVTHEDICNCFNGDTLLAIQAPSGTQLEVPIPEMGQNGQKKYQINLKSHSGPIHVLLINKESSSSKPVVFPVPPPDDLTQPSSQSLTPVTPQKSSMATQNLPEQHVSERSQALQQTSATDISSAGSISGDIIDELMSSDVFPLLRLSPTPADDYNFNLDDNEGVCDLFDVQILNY
Description: as §5
Test [18] concerns the target T2, recombinant E2F1 N1-His (64-301) with …. Briefly: alanine scanning; grade of inhibition of E2F DNA binding (band shift).
Description: as §5
The target is the same in test [19]. Described as above. The source holds these as a separate data set.
Description: as §5

Ends that are not written are not given here. Peptide text beside a SMILES is read from it.

T2 sequence (Q01094 64-301, chain 1 of 2): as the sequence (Q01094 64-301) above
T2 sequence (Q14186 84-249, chain 2 of 2): as the sequence (Q14186 84-249 partner) above
Chain of E2F4 overexpressed in stable transfected 3T3 cells (nuclear extract) (Q16254 2-413 limits assumed): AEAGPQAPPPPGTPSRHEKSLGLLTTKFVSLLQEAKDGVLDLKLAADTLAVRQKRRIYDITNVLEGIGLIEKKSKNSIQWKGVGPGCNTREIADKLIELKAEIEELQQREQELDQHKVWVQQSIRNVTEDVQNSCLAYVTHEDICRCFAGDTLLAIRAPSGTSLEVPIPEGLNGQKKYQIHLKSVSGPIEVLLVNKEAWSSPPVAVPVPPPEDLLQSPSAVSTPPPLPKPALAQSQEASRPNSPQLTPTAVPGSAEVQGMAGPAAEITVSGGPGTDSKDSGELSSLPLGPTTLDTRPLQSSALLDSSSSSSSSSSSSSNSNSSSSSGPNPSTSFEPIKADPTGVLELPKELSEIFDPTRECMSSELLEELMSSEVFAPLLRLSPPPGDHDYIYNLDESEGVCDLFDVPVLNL
Chain of E2F3 overexpressed in stable transfected 3T3 cells (nuclear extract) (O00716 whole entry): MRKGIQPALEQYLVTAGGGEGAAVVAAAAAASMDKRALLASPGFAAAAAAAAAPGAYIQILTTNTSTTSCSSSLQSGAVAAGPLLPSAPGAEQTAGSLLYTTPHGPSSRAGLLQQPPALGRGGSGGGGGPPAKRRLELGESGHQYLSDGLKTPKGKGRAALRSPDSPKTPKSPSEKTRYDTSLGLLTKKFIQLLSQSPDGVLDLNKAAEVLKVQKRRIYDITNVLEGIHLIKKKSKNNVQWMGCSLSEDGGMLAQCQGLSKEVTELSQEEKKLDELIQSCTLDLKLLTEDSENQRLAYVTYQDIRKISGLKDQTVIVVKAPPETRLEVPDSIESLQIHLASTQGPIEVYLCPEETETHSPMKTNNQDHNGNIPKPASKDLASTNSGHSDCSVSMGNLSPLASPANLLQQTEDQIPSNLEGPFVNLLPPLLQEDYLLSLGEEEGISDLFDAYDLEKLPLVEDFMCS
Chain of E2F2 overexpressed in stable transfected 3T3 cells (nuclear extract) (Q14209 whole entry): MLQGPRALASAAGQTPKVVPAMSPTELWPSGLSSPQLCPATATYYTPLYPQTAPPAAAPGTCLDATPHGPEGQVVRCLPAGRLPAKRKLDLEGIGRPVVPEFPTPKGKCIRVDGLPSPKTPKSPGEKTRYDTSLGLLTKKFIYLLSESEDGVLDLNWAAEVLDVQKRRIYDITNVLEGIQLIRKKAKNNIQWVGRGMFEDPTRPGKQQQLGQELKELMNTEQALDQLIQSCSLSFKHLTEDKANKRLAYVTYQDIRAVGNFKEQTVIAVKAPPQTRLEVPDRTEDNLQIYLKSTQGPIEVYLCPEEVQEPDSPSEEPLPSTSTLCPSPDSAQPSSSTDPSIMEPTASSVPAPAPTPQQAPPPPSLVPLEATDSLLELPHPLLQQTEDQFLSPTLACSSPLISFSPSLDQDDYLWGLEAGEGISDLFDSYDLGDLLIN

With “MAP-4-SEQ ID NO:39-TAT: control peptide; SEQ ID NO:39 is SEQ ID NO:2 with 2 alanine substitutions at positions 1 and 4, i.e. AVRAHF (not fully specified (N-terminus, C-terminus); also: MAP-4 branched core) [reference compound]”, the inhibition of proliferation result in [1], in test [2], in test [3] and in test [5] was “not displayed” in each case. Moreover, the “hallmarks of apoptosis after staining” value in test [4] was “No effects”. In addition, in test [6], the “inhibition of cell proliferation / cell growth” value is “no inhibitory effects”. For the same molecule, the “effect on transcription from CycA-Luciferase construct” value in test [7] was “No effect”. Besides, in test [8], the DNA laddering entry is on record as “No effects”.

One may read the IC50 as the concentration at which inhibition is half-maximal. `CC[C@H](C)[C@H](NC(=O)[C@H](CCCNC(=N)N)NC(=O)[C@H](CO)NC(=O)CN)C(=O)N[C@@H](CC(C)C)C(=O)N[C@H](C(=O)N[C@@H](Cc1ccccc1)C(=O)N[C@@H](CCCNC(=N)N)C(=O)N[C@@H](CO)C(=O)NCC(=O)N[C@@H](CO)C(=O)N[C@@H](Cc1c[nH]c2ccccc12)C(=O)N[C@@H](Cc1ccc(O)cc1)C(=O)N[C@@H](C)C(=O)N[C@@H](CO)C(=O)O)[C@@H](C)O` [SEQ ID NO:5, GSRILTFRSGSWYAS] (H-GSRILTFRSGSWYAS-OH): the IC50 in test [9] lay in the range of 50 to 100 µM.

Consider `CC(C)[C@H](NC(=O)[C@@H](N)Cc1c[nH]c2ccccc12)C(=O)N[C@@H](CCCNC(=N)N)C(=O)N[C@@H](Cc1c[nH]c2ccccc12)C(=O)N[C@@H](Cc1c[nH]cn1)C(=O)N[C@@H](Cc1ccccc1)C(=O)O` [SEQ ID NO:2, WVRWHF] (H-WVRWHF-OH), for which the IC50 in [9] lay in the range of 50 to 100 µM.

Turning to WVRWAF [SEQ2-A5], the inhibition in [9] was 0.

Regarding WARWHF [SEQ2-A2], the inhibition in test [9] turned out to be 0.

As to `CC[C@H](C)[C@H](N)C(=O)N[C@@H](Cc1c[nH]c2ccccc12)C(=O)N[C@@H](CC(C)C)C(=O)N[C@@H](CO)C(=O)NCC(=O)N[C@@H](CC(C)C)C(=O)N[C@@H](CO)C(=O)N[C@@H](CCCNC(=N)N)C(=O)NCC(=O)N[C@H](C(=O)N[C@@H](Cc1c[nH]c2ccccc12)C(=O)N[C@H](C(=O)N[C@@H](CO)C(=O)N[C@@H](Cc1ccccc1)C(=O)N1CCC[C@H]1C(=O)O)C(C)C)C(C)C` [SEQ ID NO:4, IWLSGLSRGVWVSFP] (H-IWLSGLSRGVWVSFP-OH), in test [9], the half-maximal inhibitory concentration (IC50) was 50 to 100 µM.

For WVAWHF [SEQ2-A3], in test [9], the inhibition was found to be 0.

B1: SEQ5-5 (3-15) (RILTFRSGSWYAS) (peptide)
peptide: RILTFRSGSWYAS
In the case of B1, the binding result in test [10] was “binds”.

B2: peptide SEQ ID NO:5 (…) (peptide)
peptide: GSRILTFRSGSWYAS
Consider B2, for which the IC50 in test [11] and in [12] was 100 µM in each case.

B3: SEQ5-8 (2-13) (SRILTFRSGSWY) (peptide)
peptide: SRILTFRSGSWY
For the molecule B3, in test [10], the binding result was “binds”.

B4: MAP4-SEQ ID NO:5 (peptide)
peptide: GSRILTFRSGSWYAS
modifications: also: tetravalent MAP core: 4 copies joined by C-terminus to Lys2-Lys-X core
notes: Branched tetravalent peptide on a lysine MAP core
With B4, the IC50 in test [11] is 10 µM; in test [13], about 30 µM; in test [14] it was about 30 µM; in test [15], about 30 µM; in [12] it was 10 µM; in test [16] it was about 30 µM. Further, in [17], the IC50 is about 30 µM.

B5: peptide SEQ ID NO:5 (GSRILTFRSGSWYAS) (peptide)
peptide: GSRILTFRSGSWYAS
notes: Synthetic peptide in the band shift assays
B5: the binding result in [10] is recorded as “binds”.

B6: SEQ5-A13 (GSRILTFRSGSWAAS) (peptide)
peptide: GSRILTFRSGSWAAS
With B6, the binding result in test [18] is given as “binds”.

B7: SEQ5-A3 (GSAILTFRSGSWYAS) (peptide)
peptide: GSAILTFRSGSWYAS
B7: in test [18], the binding result was “binds”.

B8: peptide SEQ ID NO:2 (WVRWHF) (peptide)
peptide: WVRWHF
notes: as for B5
For the molecule B8, the concentration without inhibition in [11] and in [12] was over 500 µM in each case. In addition, the binding result in test [19] is “binds”.

B9: SEQ2-A5 (WVRWAF) (peptide)
peptide: WVRWAF
For B9, the binding result in test [19] was “binds”.

B10: SEQ2-A3 (WVAWHF) (peptide)
peptide: WVAWHF
Turning to B10, the binding result in [19] is “binds”.

B11: SEQ2-A2 (WARWHF) (peptide)
peptide: WARWHF
For the molecule B11, the binding result in [19] is “binds”.
